Experiment: yeast display, Sf9 membrane polyspecificity reagent, FACS + sequencing; frameworks hold sequencing errors
Method in brief: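 Galactose induction of a Saccharomyces cerevisiae BJ5465 synthetic nanobody display library ran 36–48 hours. The cells were then stained for 1 hour at 4 °C with 10% biotinylated, detergent-solubilized Sf9 membrane reagent, pulled down on streptavidin microbeads and FACS-sorted into low and high (top ~1%) gates on expression and reagent-binding fluorescence. Labels for polyreactivity follow the gate of origin.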

Row | Sequence | polyreactivity (PSR sort gate)
1 | QVQHVESGGGLVQAGGSLRLSCAASGSTITANAMGWYRQAPGKERELVPAISDTTGNTYYADSVMGRFTISRDNANNTVYLQMNSLKPEDTAVYYCAADLTSYYGGDYWGQGTQVTVSS | low polyreactivity
2 | QVQHVESGGGLVQAGGSLRLSCAASGYIFKGNVMGWYRQAPGKERELVAAISRSGGRTYYADSVKGRFTISRDNAKNTVYLQLNSLKPDDTAVFYCFTKHRTKPTRPVDYWGQGTQVTVSS | high polyreactivity
3 | QVQHVESGGGLVQAGGSLRLSCAASGYIFPDYAMGWYRLAPGKEREMVAAITSSGGITYYADSVKGRFTISRDNAKNTVYLQMNCLKPEDSAVYYCAKGYPWRYSIMDYWGQGTQVTVSS | low polyreactivity
4 | QVQHVESGGGLVQAGGSLRLSCAASGYIFSRYMGWYRQAPGKERQLVAAITRGGVSTYYADSVKGRFTISRDNAKNTVYLQMNSLKPEDTAVYYCATGRPVYYVASYDYDYWGQGTQVTVSS | low polyreactivity
5 | QVQHVESGGGLVQAGGSLRLSCAASGYTFPLYAMGWYRQAPGKEREFVAAISKRSGTTYYADSVKGRFTISRDNAKNTVYLQMNSLKPEDTAVYYCNAGYSVYNQRFGYWGQGTQVTVSS | high polyreactivity
6 | QVQHVESGGGLVQAGGSLRLSCAASIRIFRYYAMGRSRQGPGKEREVVASSRSASSTYYADSVKGRFTISRDNAKNPVYLQMNSLKAEDTAVYYCNAVSPLSIWSSRDGWYGYWGQGTQVTVSS | high polyreactivity
7 | QVQHVESGGGLVQAGGSLRLSCAASMGWYRQAPGKERELVAAINSGGSTNYADSVKGRFTISRDNAKNTVYLQMNSLKPEDTAVYYCAKTFSNLPEYDYWGQGTQVTVSS | low polyreactivity
8 | QVQHVESGGGLVQAGGSLRLSCAPSGRIFRYNAMGWYRQAPGKERELVAVISTRGGSTFYADSVKGRFTISRDNAKNTVYFQMNSLKPEDTAVYSCAAYRRHPFGGGYWGQGTQVTVSS | high polyreactivity
9 | QVQHVESGGGLVQAGGSLRLSCPASGIIIYQYALGSYRQAPGKERELVAAISSGVNTYYADSVKGRFTISRDNAKNTVYLQMNSLKPEDTAVYYCAARLTFGYLRSKFYYWGQGTQVTVSS | high polyreactivity
10 | QVQHVESGGGLVQAGGSLRLSSAASGLTFYHYTMGWYRQAPGKERELVAAITKNGGSTYYADSVKGRFTISRDNAKNTVYLQMNSLKPEDTAVYYCNVGPRRVDRSRAASSDYDYWGQGTQVTVSS | high polyreactivity
11 | QVQHVESGGGLVQAGGSLRLSSAAYGFIFGYYTMGWYRQAPGKERELVAAITSGDSTNYADSVKGRFTISRDNAKNTVYLQMNSLKPEDTAVYYCNARGLFTWMDYWGQGTQVTVSS | low polyreactivity
12 | QVQHVESGGGLVQAGGSLSLSCAASARTFRRNVMGLYRQAPGKERELVAAISYGANTNYADSVKGRFTISRDNAKNTVYLQMNSLKPEDTAVYYCAAGEGWRSRTFDYWGQGTQVTVSS | low polyreactivity
13 | QVQHVESGGGLVQAGGSNRLSCAASAFIFRSNAMGWYRQAAGKEREFVPAISSRGGSTTYADSVKGRFTISRDNAKITVYLQMKSLKPEDTAVYYCARDCYYYPQYRKRYYYWGQGTQVSVSS | high polyreactivity
14 | QVQHVESGGGLVQAGRSLRLICAASGSIFDGNAMGWYRQAPGKERELVAAINWPGTRTYYADSVKGRFTISRDNAKNTVYLQMNSLKPEETAVYNCNKKWYPYLEHDYWGLGTQVTVSS | high polyreactivity
15 | QVQHVESGGGLVQSGGSLRLSCAASGSIFGKYSMGWYRQAPGKERELVAAISDSGSITYYADSVKGRLTISRDNAMYTFYLQMNSLKPEDTAVYYCAAEVNYYQRFKYEYWGQGTQVTVSS | high polyreactivity
16 | QVQHVESGGGVVQGGGSLRLSCAASLSIFYIYAMGWYRQAPGTERELVAAITRSGGSTNYADSVTGPFTFSRDNATNTVYLQMTSLQPEDTAVYYCAAAVGRPYTPTYDYWGQGTKVTVSS | low polyreactivity

Row | Sequence | polyreactivity (PSR sort gate)
17 | QVQHVESGGVLVQARGSLRLTCAASGSTFIRNAMGWYRQAPGKERELVAAISASGGRSYYADSVKGRFTFSRDNAKTSVYCQLNSLKSEDTAVYYFAARNARYVHTMVFWGQGTQVTVSS | high polyreactivity
18 | QVQHVESGRGLVPAGGSLRLSCAASGSTFNLNAMGWYRQAPGKERELVAAISWRGDSTSYADSVKGRFTISRDNAKNTVYLQMNSLKPEDTAVYFCATAHDSAFYRYWYVPSEYNYWGQGTQVTVSS | low polyreactivity
19 | QVQHVESGRGLVQAGGSLRLSCAASGSIFRWYTMGWYRQAPGKERELVAAITSGGTTKYADSVKGRFTISRDNAKNTVYLQMNSLKPEDTAVYYCARRHRYRYDWGQGTQVTVSS | high polyreactivity
20 | QVQHVESGRGLVQAGGSLRLSCAASGSIFTSNAMGWYRQAPGIERELVAAISIGGGTYYADSVKGRFTISRDNAKNTVYLQMNSLKPEDTAVYYCAARVGGRRVRFNYWGQGTQVTVSS | high polyreactivity
21 | QVQHVESGRGLVQAGGSLRLSCAASGSTFDYNALGWSRQAPGKERELVARISSSGGITDYADSVKGRFTISRDNAKNTVYLHMNSLKPDDTAVNYCARVGKSGAVTAETRRWYYYWGQGTQVTVSS | low polyreactivity
22 | QVQHVESGVGLVQAGGSLRLSCAASGRIFRWNAMGWYRQAPGKERELVAAISWNGGRTYYADSVKGRFTISRDNAKNTVYLQMNSLKPEDTAVYYCAAPHCVPDLHSGDYWGLGTQVTVSS | low polyreactivity
23 | QVQHVESGVGLVQAGGSLRLSCAASGRTFHSSTMGWYRLAAGKERELVAAISKSGGSTYYADSVKGRFTLSRDNAKNTVYLQMNSLKPEDTAVYYCAADPGSRVHPGVYYWGQGTQLTVSS | high polyreactivity
24 | QVQHVESGVGLVQPVGSLRLSCAASGSTIVSNAMGWERQAPGKERELVAAISTSGGTTDYPDSVKGRFTISRHNAKNTVYLQMNCLKPEDTAVYYCAARHYYVKHSYDYWGQGTQVTVSS | low polyreactivity
25 | QVQHVESLGGLVQAGGSLRLSCAASGIIFGYYAMGWYRQAPGKERELVAAISRRGGSTYYADSVKGRFTISRDNAKNTVYLQMNSLKPEDTAVYYCAAVELRLSTPDMESWGQGTQVTVSS | high polyreactivity
26 | QVQHVESRGGLVQAGGSLRLSCAASGFTFYLNAKGWYRQAPGKVRELVAAISYSDGSTYYADSVKGRFTISRDNAKNTVYLQMNSLIPEDTAVYYCAADTTDPGGAYQLMEYWGQGTQVTVSS | high polyreactivity
27 | QVQHVESRGGLVQAGGSLRLSCAASGIIFRYAMGWYRQAPGKERELVAAIRKSDGSTYYADSVKGRFTISRDNAKNTFYLQMNSLKPEDTAVYYCATDIGYGNRKGFYYWGQGSQVTVSS | high polyreactivity
28 | QVQHVESVGGLVQAGGSLRLICADSGFTFWPYAMGWYRPAPGTERELVAAITSSGSTNYADSVKGRFTISRDNAKNTVYLQMNSMKQEDTAVYYCAADHRPWRFQSSVQLYYYWGQGTQVTVSS | low polyreactivity
29 | QVQHVESVGGLVQAGGSLRLSCAASGSIFGRYAMGWYRHAPGKERELVAAISWSGGSTYYADSVKGRFTISRDNAKNTVYLQMNSLKPEDTAVYYCAATTYSGFDYWGQGTQVTVSS | high polyreactivity
30 | QVQHVESVGGLVQAGGSLRLSCAASGSTFGYYAMGWYRQAPGKERELVATISATGGSTYYADSVKGRFTISRDNAKNTVYLQMNSLKPEDTAVYYCNAEYDRGNEYDYWGQGTQVTVSS | low polyreactivity
31 | QVQHVESVGGLVQAGGSLRLSCAASGYIFDYYDIGWYRQAPGKERELVAAINWSGGNTYYADSVKGRFTISRDNAKNTVYLQMKSLKPEDTAVYYCNADPTWSLEYGYWGQGTQVTVSS | low polyreactivity
32 | QVQHVESVGGLVQAGGSLRLSCASSASIFRPNAMGWYRQAPGKDRELVAAITWSGDSTYYADSVKGRFTISRDNAKNTVYLQMNSLKPEDTAVYYCAADFTYQGSSPNYYWGQGTQVTVSS | low polyreactivity

— the nanobody polyreactivity screen of Harvey et al. (2022)
